According to the domain aggregation screens of Martell et al. (2025):

Experiment: soluble fraction after stress (log2 fold change); higher = more stays soluble; pooled small domains, quantitative proteomics
Details: stress: 50 degC
Method in brief: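 Pooled custom libraries of small protein domains were each held under stress at 50°C. The read-out, high-throughput quantitative proteomics, tracked how much of each protein stayed soluble. This is reported as a base-two log fold change used to indicate aggregation propensity. Higher values mean more protein remains in solution.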

Compared with “HMNLGDLYVIMEIAGQRDDVSARLMNREGQTFLVKTGTKLKSGDVVKEITPTYIKTDHDGEEAFLYF”, “HMEILNYVVSDGQSGIRIDRYLSDSNEDLSRSYIQKLLKEQKVTVQGTFVKANYKVQAGDVITVEVPDMA” is lower in “soluble fraction (log2)” value: -0.542 for the first, -0.946 for the second.

Compared with “HMRSQLALVVRTGESQRLDNFLVNNLAWKSRNRLQGLIREGLVTVNGEKTKASRRVHLDDLVEIHL”, “HMENEIFVPKVFMDWYNKVDKSIKVFKAFNLIEKETDPRLKEWVEDNQDEFAKIWLGQLLPVV” is higher in “soluble fraction (log2)” value: -1.25 for the first, -0.0598 for the second.

Compared with “HMSHGNAALTPRQRLRLARLVVDDQWSVSAAAEFFRVSYPTAAKWARRYVELGPAGMADRSS”, “HMRDISTDTSAWTFQDIKRYYDPQDLLTEKQVGQALSLIKGRNLNPLLNEVYIVAYKKKNGGAEFSLIV” is higher in “soluble fraction (log2)” value: -1.42 for the first, -0.28 for the second.

“HMPPNVLSEREQEVLQLAADGMSNKEMGSELYIAPTTVRDHMQSIMRKLQVNSRTAAAVAGLKLGLLD” and “HMTKKSLFNQYLDDQKRLDIVTLQKAELVDLHKLADELNIDQYNQLKKNELIFKILQSNPSE” are within 0.2 log units of each other in “soluble fraction (log2)” value: -0.1 for the first, -0.135 for the second.

Compared with “HMGHKKLTIELQDEIIVLPKELEKYNLTVSDDKTSLIYTYKSRGEKTGITDLLRDIKDAGLRLKDLITEQ”, “HMAKLGITQREQEVLQLLVTGKTYKEIAAELFISLPTVKTHVSNIYSKAKVRNRLELSNLINYI” is lower in “soluble fraction (log2)” value: 0.434 for the first, -2.73 for the second.

First: HMGEAAIYRINILINNLNVRSGPGTLYPRLRRADFPGEYDIFEEKNGFGRISNTKSEWVSLNTQYVQRLT
Second: HMNELIGVEQLQDLREAIADHGFAEQRVLNWLYQATKGQVSRLEQLPLPMLTTLHKKLGQWADAEAAASSA
The “soluble fraction (log2)” value of the first is lower: -0.549 for the first, -0.0602 for the second.

“HMDEFTIILEDAGSQKIAVIKEVRVLNSSLGLKEAKDLVDATPATIMEKADKATADKAKAAFEAAGAKVTI” and “HMGNKKLVLKLSKKLIKIPSFLNIYSVKLTKNGRELEINLDKSQNEAIDIINLIKKNNISFLEFDIKKR” are within 0.2 log units of each other in “soluble fraction (log2)” value: -0.22 for the first, -0.267 for the second.

Compared with “HMTEALEFTVEDLRMAGLVNSSFSRRRRELFSEKLGIGYGNGKSLLKKLNGYGITREEFNGAIQSLSD”, “HMDAHYMEMKGKTGTAFTMLRPAGKIDIEGQIFDAVAEAGFIEKGEAIRVVKYENAQLIVRK” is higher in “soluble fraction (log2)” value: -0.747 for the first, 0.11 for the second.

First: HMEDGRLPPPGTVLRREYKGRAVFVRVLPKGFEFEGEVYRSLSAIAAKVTGSHWNGFRFFGLHE
Second: HMVQIVINKEVQTTSQTILRENAGTSSRNIGYVDPNVKLRATLDRNSFYFIPEKKGWIMKSRVKLIEDLS
The “soluble fraction (log2)” value of the first is higher: -1.54 for the first, -3.79 for the second.

Going from “HMKVSRTAVKLHHANAVEVAKKLQPLFVVGDVQIEPVKDAGIILLKGPASTLADLRESIVQMDHTA” to “HMGLIDNLTRIMEKKNISAYQLEKAGIVKQTTFTSWKKGTQPALDKIIKIMQYIEVTPNELFGY”, the “soluble fraction (log2)” value falls from -0.0461 to -1.39.

Compared with “HMLSVKEQTYQIIKEKILNQEYPAGARININELAEELGISNSPIREALSLLEQQGLVISNRSSGATVT”, “HMGMVKLNEEYLEKVKKHRKELHITQLQISKKLGWSLSRYQRFESGFYKEIEDDAPKKIKEEFGIDYSLL” is lower in “soluble fraction (log2)” value: 0.00507 for the first, -0.976 for the second.

Going from “HMTPATVVIPKVAGQTVAEAKETLKNANFEIGEEKDESSDTVEEGRVIRTDPESGTNRKEGTKINLIVSS” to “HMGSIRDIIVQYLSKFDDPQPAAKIVEYVQQYRDTTESSIRSSMGSGDQFVQFSGGLYGLKDKTYAAWYSI”, the “soluble fraction (log2)” value falls from -0.0325 to -0.321.

“HMKSAYADVAIAKVQDYVNVRAENNEDSEVLGKLYNNSAATVLETTDDGWYKISSGSVTGYVKSEYVVVG” and “HMRQTGWVTADSLNVRARPSLQAERVEKVTYGQQVQIMFKQGQWYQIATENGKIGWVSSEYIAAVSP” are within 0.2 log units of each other in “soluble fraction (log2)” value: 0.0784 for the first, -0.0654 for the second.

Compared with “HMSNYPYLLRTYEGKLAVFTDDLVQPDLVFDVYVRTLPELDQQQLSRGIRVKTYDELTSMIEDYI”, “HMEVPQKTLEILEPWRGRKGFLIPVLQAVQHEFGYVPKEAIETVSREMKMPTAEIYGVVTFYAQFH” is higher in “soluble fraction (log2)” value: -1.13 for the first, -0.493 for the second.

Going from “HMTTIAQMTGPQRAAVILLVLGEDHGRTIWQEFDDDEIRIITRAMAELGTVDADEVERLMLDFVGKLSS” to “HMTAAPEVRVEGLFKGAAVLKIDGQQVMLKKGRSHSSGVTLVDANAHRAIVEIDGQRHELALHMA”, the “soluble fraction (log2)” value rises from -2.58 to 0.0499.

Going from “HMYEINEIIRERRLKKGLTQAQVAKYLGVSAPAVNKWEKGTTYPDLVLLPALARLLDTDLTTLLSF” to “HMNINVRNTGIKAVENNIINLSSDQRTFTWASNDRKLITVPFDENPYSALAAWFKTDEGIEVYQTIEKKL”, the “soluble fraction (log2)” value rises from -1.38 to -0.115.

First: HMDGVNRDKIEYRLDDLYYLKGSDAPYTGKVFEEWSGQQRVETNYIDGKLDGLSESWHENGQKASEVNY
Second: HMRDFTQPQTASIGPRMREALARGTMTVEELREQFRTQEFPHESVRTAFLEELERVAAELGLA
The “soluble fraction (log2)” value of the first is higher: 0.345 for the first, -0.0676 for the second.

“HMEQFRENIVRIYMEIDDYENGAKFLEMGNNRDASFYELAGDFYKYFGENELANENYDLAISA” and “HMSDTGQELHDALNMARRTLTILEEQAAGYTALTIPARLVLELEEKRKDVVRLETQIRSAATGTPG” are within 0.2 log units of each other in “soluble fraction (log2)” value: -0.387 for the first, -0.202 for the second.

First: HMGYDDLEPFDANGRLRWSDQELVLAFGRHRGATLRTLELNDPSYLRWLLSGNGPLEQQDIQRLEQILES
Second: HMKNAMTDIYLEEIKKILTKNEFLVYTLRELNNFSVQFITDNYDLSEKTIYNSVYRAKKKIDRHFT
The “soluble fraction (log2)” value of the first is lower: -1.26 for the first, -0.0693 for the second.

Compared with “HMSHRVGDVVELTAVRMNDQGVFLDAGTGNTSDDILLHKHQMTSPVSVGDKVKVQLYLDAKNRITASMKL”, “HMNKEDIASNEKLLGLLNHMSKVLKDIDFIKDDRPMIVRKINHIFKKATLSEEEINILRGVLSAIENHS” is lower in “soluble fraction (log2)” value: -0.000204 for the first, -0.479 for the second.

“HMPEKNQITHLIRLIDDRDEFVRKRVREQLIKLGEDAIPFLEMAAKTENLEIQRIASEIIQAIIPRQ” and “HMNNGTDGLTTRLRRAILAGQYTFKERLPSERQLAEHFNTSRGTVRKVLQRLTTMNLVEQRAGSGTYVRYG” are within 0.2 log units of each other in “soluble fraction (log2)” value: -0.13 for the first, -0.2 for the second.

First: HMGEIHALIPGLVSRLFVKPGDRVENGQGLLILEAMKMENEIDSPISGVVGKIYIKAGDKVEKGELIMEIN
Second: HMSVTDDQLRVFTNKSGTKIKAKIVEVSDDKVKLIRDDNKKFIVPINSLSEEDQDYLRDWVSNEAVEP
The “soluble fraction (log2)” value of the first is lower: -0.46 for the first, 0.0333 for the second.

First: HMKQNVEAVIKERAIEKARAQVKAVSTHMALEAQSLSKEQLEFEIERIAAQIIDKMPSDFWND
Second: HMKFTSEKDISLLELVKAKMGFVSNTKARNVIKIGQIMVSGKVIKIPSTLIKPGTEVELARRV
The “soluble fraction (log2)” value of the first is higher: -0.386 for the first, -1.66 for the second.

Going from “HMISFLNFVRKEIDASQLKDSTKQNHLTTIGLLQSFKPSIEFKDLNYNFITSFEKYLYDAGYQM” to “HMTDFLKTRIDTLGLSTRTLNALSEANVRTIGGIARKKQEDLLEIDGIGEKGIQEIKKMLGEYGITL”, the “soluble fraction (log2)” value falls from 0.133 to -0.126.

Compared with “HMGNLIIFYDAQTGSAPLLKAVKTSGATLVYEYKNLHGIAIRPSSKTSIEDAIAYFKKVNGVLSVE”, “HMSIYYQIYESLKKDLSNNLYKPGEKLPSENVLSKRFGVNRHTIRRSLQLLKNEGILFSKRGSGIIVHD” is lower in “soluble fraction (log2)” value: -1.84 for the first, -2.32 for the second.

Compared with “HMFERIYVFSRDGDIIELPKGSTVLDFAYHVHTHVGNRAQAARVNKRYVPLTYQLKTGEQVEIIIS”, “HMGLPAWVPQNYIDRVTAIYDYSADKDDELTFNEGSTIFVLKKNDDGWWEGVMDGVTGLFPGNYVEAT” is higher in “soluble fraction (log2)” value: -1.2 for the first, -0.8 for the second.

First: HMKASEMKKGQTIKIDGVLYVIVDFQHVKLSKGGAVYQTKLRNLAAGGIRDIRIRAEEVLEDA
Second: HMPTGRVVIPLNRLTASDVARILDEAYGRDHNFEVVKPSRLAKGIIVIGPKSEIDGIKELLAH
The “soluble fraction (log2)” value of the first is higher: -0.311 for the first, -0.535 for the second.

Going from “HMGITPSIEMILEYFAFKESSETEANKFFNYYSSIGWLVGGKTKMKDWKASARNWIMNQNKFQ” to “HMHFDQILAHAMDERGMNAVQLASLTGLSSGAISRYLAGDRQPTVYSIQQIAKALGVSADYLVG”, the “soluble fraction (log2)” value rises from -3.97 to -0.884.

Compared with “HMGVKIELNENEQAIFAAMQKQVEAVLPDLRAQFADMSNKAWDNSVKTLTKNNLLKVSKEAEILFIRL”, “HMAGIPIHMSQLKQIILLLSQGYPIKGIARETGVSRNTIKGYLQTLTSQDLNVTDALKLENIQLEYLLRSP” is lower in “soluble fraction (log2)” value: -0.718 for the first, -1.65 for the second.

Going from “HMGKLGENIKRIREGMGLSQRQFGELIGKSDSQIWSYENDRTDILASTLYKIAAVANVDFNNLMAGIIP” to “HMAHLNYQTVDINALIRHSLQLVSQDAQSRGIALQFTPRPELTTISADPDRLNQVLLNLYLNAMQD”, the “soluble fraction (log2)” value rises from -0.925 to -0.334.

“HMGIAEAKRVIVRTLHDVLGPEADFLTEKIDVAQTAAELRVHAEKYRDMLVDMGKPKKSAAFWEAFEAALP” and “HMDQAEDVLSIPVDALMRGNQVYIKDDTVTEQQGPIPAGFKAVEVETGLISDSYVEIKSGLSEGDTVYVAE” are within 0.2 log units of each other in “soluble fraction (log2)” value: -0.0544 for the first, 0.141 for the second.

Compared with “HMRGYGDRIRILRERAGITIEQLAERLGVAPYFIRRTELSEVYPTKPYIEALADVLNIDASYLARHI”, “HMKESFAQLFSLLTPTEQKVAALISQGFSNKDIAAKMFISLSTVKTHTNHIFAKMGVANRNALVAKVNN” is higher in “soluble fraction (log2)” value: -1.81 for the first, -1.08 for the second.

Compared with “HMEKLSMLKIKELFRLAIEMNLSHRQIAQSLNVSHTVVNRYLKRFKKSNLSYETLLKLGDKEIISALYEH”, “HMLARPTANELVKEMQRRAKEQRTELPPDAARDLLERSGQDQFLLGNEVDKLAALSGYTTITREMVAQAGT” is higher in “soluble fraction (log2)” value: -2.29 for the first, 0.186 for the second.

First: HMRVDRSALDSIPGVGPGRKRTLLHHFGSARAVEASGLADLESIRGISKALARKIYDFFHPE
Second: HMVVYFGGPVMLERGIVLHTPDISTKGTINVSDDFALTAHKEILDNINKDTSSLQFKLAIGH
The “soluble fraction (log2)” value of the first is lower: -1.38 for the first, -0.895 for the second.

“HMIGIGSDVPNKLKPAIYSFGLVAVGEKSVIPDGVQIGKNTAVSGVTSKEDYPDGVLESGETLIKA” and “HMDRIISTPMPGRVVKIPVTEGEPVAKGATVITISAMKMESEYKSPIDGIVKKIHVSEGDNINANQPLIEI” are within 0.2 log units of each other in “soluble fraction (log2)” value: 0.0103 for the first, -0.178 for the second.

“HMEDLGYVKVASQTAAIRKSAAVQAGQIGTVHEGETYRYLGEEEGWYLVEYNGQKAYISWDDGEL” and “HMNINLNVGKRLKSIRQNKELSLDEVSNLTNVSKPALAQIERGASSPTINTLWKISKGLKVPLSYFLQE” are within 0.2 log units of each other in “soluble fraction (log2)” value: -0.119 for the first, -0.0405 for the second.

Compared with “HMRKDYTVLYSAVNAEEATEIVSKLQESGVAYQYKDNGDVLVDKKQVDKVRAQLAQEGYPKS”, “HMKINVQETEVYRYLLERADRLYSMILGEERENLMERTRFFEKEVAKASLPHLPKLYDEFSIYLDRLERG” is lower in “soluble fraction (log2)” value: 0.164 for the first, -0.138 for the second.

Going from “HMRVPTVIGMDEGTAKATLANASLKSNIVYESDETKENGKVLSQGIEQNKEVKAGTTVEIKVNKIE” to “HMRTPLTGREEQVATLIGRGMTNSEIAESLSVDESTVKTHIGSILRKVHLRDRLQVALWFHGLPIE”, the “soluble fraction (log2)” value falls from -0.0202 to -0.495.
